Reference: US20170114099A1 (Affibody, published 2017)
Read-outs that look alike come from different tables or passages of the source.

Legend:
Assay in all cases: cell-based or functional assay
[1] = molecular target: T1, cell surface IL-6 receptor on TF-1 cells (UniProt P08887 20-468, limits assumed)
T1 sequence (looked up): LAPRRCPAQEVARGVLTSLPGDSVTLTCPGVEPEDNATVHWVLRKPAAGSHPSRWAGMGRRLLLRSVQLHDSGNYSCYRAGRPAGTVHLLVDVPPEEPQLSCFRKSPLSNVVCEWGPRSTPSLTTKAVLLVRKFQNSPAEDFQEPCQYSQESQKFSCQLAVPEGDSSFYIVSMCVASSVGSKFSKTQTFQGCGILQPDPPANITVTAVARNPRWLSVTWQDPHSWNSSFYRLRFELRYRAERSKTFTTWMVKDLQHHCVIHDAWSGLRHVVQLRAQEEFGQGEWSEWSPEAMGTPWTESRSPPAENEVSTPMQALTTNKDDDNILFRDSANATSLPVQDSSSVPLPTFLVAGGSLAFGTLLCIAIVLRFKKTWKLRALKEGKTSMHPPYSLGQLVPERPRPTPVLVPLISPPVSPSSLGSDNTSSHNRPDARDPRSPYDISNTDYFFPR

[2] = molecular target: T1, cell surface IL-6 receptor on TF-1 cells; remark: listed apart in the source
[3] = molecular target: T2, human IL-6 receptor alpha (hIL-6Rα) (human, UniProt P08887 20-358, limits assumed)
T2 sequence (looked up): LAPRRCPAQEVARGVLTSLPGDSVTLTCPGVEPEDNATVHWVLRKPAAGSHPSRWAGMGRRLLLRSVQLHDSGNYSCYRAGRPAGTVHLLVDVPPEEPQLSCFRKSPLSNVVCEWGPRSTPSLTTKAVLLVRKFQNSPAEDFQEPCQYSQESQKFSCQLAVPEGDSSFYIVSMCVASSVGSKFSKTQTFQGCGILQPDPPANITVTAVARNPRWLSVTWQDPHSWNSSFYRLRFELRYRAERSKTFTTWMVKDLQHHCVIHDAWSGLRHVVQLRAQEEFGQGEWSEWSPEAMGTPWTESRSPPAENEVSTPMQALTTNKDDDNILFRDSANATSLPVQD

B1: tocilizumab (antibody, V domains shown)
VH: QVQLQESGPGLVRPSQTLSLTCTVSGYSITSDHAWSWVRQPPGRGLEWIGYISYSGITTYNPSLKSRVTMLRDTSKNQFSLRLSSVTAADTAVYYCARSLARTTAMDYWGQGSLVTVSS
VL: DIQMTQSPSSLSASVGDRVTITCRASQDISSYLNWYQQKPGKAPKLLIYYTSRLHSGVPSRFSGSGSGTDFTFTISSLQPEDIATYYCQQGNTLPYTFGQGTKVEIKR
**Q.** B1 was tested. Which “IC50 blocking the IL-6 dependent growth of TF-1 cells” value [1] did it give?
**A.** 0.3 nM

**Q.** What about the “IC50 blocking the IL-6 dependent growth of TF-1 cells” value [2] of the same binder?
**A.** 0.41 nM

**Q.** What about the “IC50, inhibition of IL-6 trans-signaling dependent MCP-1 secretion by HUVECs” value [3] of the same binder?
**A.** ~5 nM
